Where two headings read alike, the source gives them in different places.
Columns and labels:
[1] = biological target: LRX11 (insect-cell protein, limits not stated for the experiment) (Arabidopsis thaliana); assay: SEC-MALS
wild-type pollen tubes = assay: Pollen tube growth assay after peptide addition; type: cell-based, Arabidopsis thaliana; details: peptide at 50 and 100 nM
[2] = biological target: LRX8 (insect-cell protein, limits not stated for the experiment) (Arabidopsis thaliana); assay: SEC-MALS
[3] = biological target: biotinylated LRX8 (49 to 400) fused to a noncleavable Avi-tag (Arabidopsis thaliana); assay: grating-coupled interferometry
[4] = biological target: LLG2 ectodomain (residues 24 to 135) (Arabidopsis thaliana) (UniProt Q6NLF4); assay: ITC
Chain of LLG2 ectodomain (residues 24 to 135) (Arabidopsis thaliana) (Q6NLF4 24-135): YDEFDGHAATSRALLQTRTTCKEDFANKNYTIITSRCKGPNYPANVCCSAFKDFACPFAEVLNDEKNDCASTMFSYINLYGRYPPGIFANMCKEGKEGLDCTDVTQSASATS

[5] = biological target: LRX8_(49–400) (Arabidopsis thaliana); assay: ITC
[6] = biological target: LLG3 ectodomain (residues 24 to 137) (Arabidopsis thaliana) (UniProt Q9M0I0); assay: ITC
Chain of LLG3 ectodomain (residues 24 to 137) (Arabidopsis thaliana) (Q9M0I0 24-137): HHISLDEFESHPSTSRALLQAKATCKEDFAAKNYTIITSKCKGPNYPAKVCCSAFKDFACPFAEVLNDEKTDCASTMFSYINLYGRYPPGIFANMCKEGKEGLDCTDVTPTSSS

[7] = biological target: LRX8_(C157A.Y87A.A133F) (Arabidopsis thaliana); assay: ITC
[8] = biological target: LRX8_(49–400) (Arabidopsis thaliana); assay: ITC; remark: listed apart in the source
[9] = biological target: LLG3 ectodomain (residues 24 to 137) (Arabidopsis thaliana) (UniProt Q9M0I0); assay: ITC; remark: listed apart in the source
[10] = biological target: LRX8_(49–400) (Arabidopsis thaliana); assay: ITC; remark: listed apart in the source
SEC-MALS = biological target: the molecule itself; assay: SEC-MALS

Work on “LRX11 (insect-cell protein, limits not stated for the experiment) (domain or fragment)” yielded a stoichiometry N [1] of 2.

In the case of “PTYNSCRRKCKRDRGYAARRYKRYRYVNADIKRNHSGYPCRICSRLYGRN [RALF4scrambled]”, the “effect on pollen tube growth, in words” value (wild-type pollen tubes) is reported as “no effect”.

“RALF4_(folded) (RALF4 residues 58 to 110, isolated from insect cells) (peptide)” was tested, and the stoichiometry N [1] was 1, the stoichiometry N [2] was 1 and the kon [3] was 400000 M⁻¹ s⁻¹. It also gave a Kd [4] of 500 nM, a Kd [5] of 100 nM and a Kd [6] of 1500 nM. For the same molecule, the Kd [7] was 2.5 nM, the Kd [8] was 3.5 nM and the Kd [9] was 11000 nM.

In the case of RRYIGYDALKKNNVPCSRRGRSYYDAKKRRRNNPYRRGCSAITHAYRYAR [RALF4_(C86A.C105A)], the fold reduction of affinity (against RALF4 (folded)) [10] is reported as 10 fold.

Work on RRYIGYDALKKNNVPCSRRGRSAADCKKRRRNNPYRRGCSAITHCYRYAR [RALF4_(Y83A.Y84A)] yielded a Kd [10] of 1400 nM.

RRYIGYDALKKNNVPASRRGRSYYDAKKRRRNNPYRRGASAITHAYRYAR [RALF4_(C76A.C86A.C99A.C105A)] was tested, and the fold reduction of affinity (against RALF4 (folded)) [10] was 10 fold.

RRYIGYDALKKNNVPCSRRGRSYYDCKKRRRNNPYRRGCSAITHCYRYAR [RALF4_(synthetic)] gave a Kd [10] of 60 nM.

B1: LRX8 (insect-cell protein, limits not stated for the experiment) (domain or fragment)
chain: ENGDLPDDIEYEVDLDLKFANNRLKRAYIALQAWKKAFYSDPFNTAANWVGPDVCSYKGVFCAPALDDPSVLVVAGIDLNHADIAGYLPPELGLLTDVALFHVNSNRFCGVIPKSLSKLTLMYEFDVSNNRFVGPFPTVALSWPSLKFLDIRYNDFEGKLPPEIFDKDLDAIFLNNNRFESTIPETIGKSTASVVTFAHNKFSGCIPKTIGQMKNLNEIVFIGNNLSGCLPNEIGSLNNVTVFDASSNGFVGSLPSTLSGLANVEQMDFSYNKFTGFVTDNICKLPKLSNFTFSYNFFNGEAQSCVPGSSQEKQFDDTSNCLQNRPNQKSAKECLPVVSRPVDCSKDKCAGG
modifications: N-glycosylated
With B1 the “stoichiometry N” value (SEC-MALS) was 2.

Reference: PMC7132299 (Proceedings of the National Academy of Sciences of the …, 2020)
